In data set [1] the test system is CC(C)[C@H](NCC1(O)OC[C@@H](O)[C@@H](O)[C@@H]1O)C(=O)N[C@@H](Cc1c[nH]cn1)C(=O)O. Description: purified protein, by the assay type. As to conditions: other: IE353, F-VH 0.18-1.75 mM, 37° C., MES pH 6.5, peroxidase-coupled, Lineweaver-Burk plot.
Substrate in data set [2]: CC(C)[C@H](NCC1(O)OC[C@@H](O)[C@@H](O)[C@@H]1O)C(=O)N[C@@H](Cc1c[nH]cn1)C(=O)O
Nature of the data set: Km value to F-VH (Lineweaver-Burk plot). To be noted: other: FPOX-CE, F-VH 0.18-1.75 mM, 37° C., MES pH 6.5, peroxidase-coupled. Format: biochemical, Coniochaeta sp. The protocol: (§1) The chemical compounds used in the present examples were purchased from NACALAI TESQUE, INC. unless otherwise particularly stated.
(§2) The following describes an activity measurement method of the following examples 1 through 3.
(§3) An enzyme activity to a substrate was measured by an increase in absorbance of a pigment as a result of peroxidase reaction involving hydrogen peroxide generated by enzyme reaction. First, 3 ml of activity measuring reagent was heated at 37° C. for 5 minutes, and then 0.1 ml of enzyme solution diluted in advance by an enzyme diluent (a 50 mM potassium phosphate buffer (pH 7.5)) was added to the activity measuring reagent, thereby starting the reaction.
(§4) The reaction was conducted at 37° C. for 5 minutes, and then a change in the absorbance at 500 nm (ΔODtest/min) was measured. Meanwhile, a blank test was conducted by adding, instead of the enzyme solution, 0.1 ml of enzyme diluent to the activity measuring reagent, and then measuring a change in the absorbance at 500 nm (ΔODblank/min) in the same way. […] In the above formula, • “3.1 (ml)” is the whole liquid quantity; • “13” is a millimolar absorbance index; • “1.0 (cm)” is an optical length of a cell; and • “0.1 (ml)” is the enzyme sample quantity.
(§5) The Km value to F-VH was worked out as follows. […] Subsequently, activities in the samples were measured by the above-described activity measurement method. […]

Substrate in data set [3]: CC(C)[C@H](NCC1(O)OC[C@@H](O)[C@@H](O)[C@@H]1O)C(=O)N[C@@H](Cc1c[nH]cn1)C(=O)O
Nature of the data set: Km value to F-VH (Lineweaver-Burk plot). Format: biochemical, E. terrenum. To be noted: other: FPOX-EE, F-VH 0.18-1.75 mM, 37° C., MES pH 6.5, peroxidase-coupled. The protocol:
as §1, §2, §3, §4, §5

In general, Km refers to the concentration of substrate that gives half-maximal velocity. For “Phaeosphaeria nodorum fructosyl valyl histidine oxidase IE353, wild type, SEQ ID NO: 1 (Parastagonospora nodorum SN15)”, the Km in data set [1] was found to be 500 µM.

B1: FPOX-CE (Coniochaeta sp.), conventional enzyme manufactured by KIKKOMAM Corporation (Coniochaeta sp. NISL 9330) (protein)
chain: MTSNRADTRVIVVGGGGTIGSSTALHLVRSGYAPANITVLDTFEIPSAQSAGHDLNKIMGIRLRNKVDLQMSLEARQMWKEDELFQPFFHNTGRMDCEHTPEGIEDLKKQYQALHDAGAGLEKTHAWLDNEDEILSKMPLLQRDQIQGWKAIWSQDGGWLAAAKAINAIGQFLKERGVKFGFGGAGSFKQPLFDDEGTTCIGVETADGTKYYADKVVLAAGAWSPTLVDLEDQCCSKAWVYAHIQLTPEEAAEYKGVPVVYNGEFGFFFEPNEFGVIKVCDEFPGFSRFKEHQPYGAPSPKHISVPRSHAKHPTDTYPDASEVSIKKAIATFLPRFQDKELFNRALCWCTDTADAALLMCEHPKWKNFILATGDSGHSFKILPNVGKHVVELIEGRLPEEMAYQWRWRPGGDALKSRRAAPPKDLADMPGWKHDPKL
On to B1, for which the Km in data set [2] turned out to be 1000 µM.

B2: FPOX-EE (E. terrenum), conventional enzyme manufactured by KIKKOMAM Corporation (Penicillium terrenum) (protein)
chain: MAHSRASTKVVVVGGGGTIGSSTALHLIRSGYTPSNITVLDVYKTPSLQSAGHDLNKIMGIRLRNGPDLQLSLESLDMWQNDELFKPFFHQVGMIDCSSSKEGIENLRRKYQTLLDAGIGLEKTNVWLESEDEILAKAPNFTREQVKGWKGLFCTDGGWLAAAKAINAIGIFLQDKGVKFGFGGAGTFQQPLFAADGKTCIGLETTDGTKYFADKVVLAAGAWSPTLVDLEDQCVSKAWVFAHIQLTPKEADAYKNVPVVYDGEYGFFFEPNEYGVIKVCDEFPGFSRFKLHQPYGAASPKMISVPRSHAKHPTDTYPDASEVTIRKAIARFLPEFKDKELFNRTMCWCTDTADANLLICEHPKWKNFILATGDSGHSFKLLPNIGKHVVELLEGSLSQEMAGAWRWRPGGDALRSRRGAPAKDLAEMPGWKHDAHL
As to B2, in data set [3], the Km stood at 1000 µM.

The values are drawn from patent US8993255B2, “Protein having fructosyl valyl histidine oxidase activity, modified protein, and use of the protein or the modified protein” (Toyo Boseki Kabushiki Kaisha, priority 2008, dated 2015).
